No end group written: not given here.

The target of experiment [1] is monoclonal anti-TCR Vβ antibody. Nature of the experiment: ELISA OD with α-TCR Vβ on plate coated with CDR-L3 homodimer, against control (culture medium/PBS).
Experiment [2] has the same target. The experiment can be described thus: ELISA; plate coated with CDR-L3 homodimer, tested against α-TCR Vβ; mean ± SD of three observations. A general note: ELISA stands for enzyme-linked immunosorbent assay.
Experiment [3] has the same target. The experiment can be described thus: ELISA OD with α-TCR Vβ on plate coated with CDR-H2 homodimer, against control (culture medium/PBS).
The target is the same in experiment [4]. Nature of the experiment: ELISA; plate coated with CDR-H2 homodimer, tested against α-TCR Vβ; mean ± SD of three observations.
Experiment [5] shares this target. Nature of the experiment: ELISA OD with α-TCR Vβ on plate coated with CDR-H3 homodimer, against control (culture medium/PBS).
For experiment [6] the target is unchanged. The experiment can be described thus: ELISA; plate coated with CDR-H3 homodimer, tested against α-TCR Vβ; mean ± SD of three observations.

B1: CDR-L3 homodimer peptide (SEQ ID NO:16 with an added N terminal cysteine, dimerised) (peptide)
peptide: CQQYNSYPLT
modifications: also: homodimer, linkage not given here
As for B1, in experiment [1], the Ratio Test/Control was determined as 1.74. This molecule showed an optical density in experiment [2] of 0.243 OD.

B2: CDR-H2 homodimer peptide (SEQ ID NO:8 with an added N terminal cysteine, dimerised) (peptide)
peptide: CNIYPSDSYTNYNQKFKD
modifications: also: homodimer, linkage not given here
On to B2, for which the Ratio Test/Control in experiment [3] is 1.83. In experiment [4], this molecule gave an optical density of 0.307 OD.

B3: CDR-H3 homodimer peptide (SEQ ID NO:10 with an added N terminal cysteine, dimerised) (peptide)
peptide: CLRGLLPDY
modifications: also: homodimer, linkage not given here
Regarding B3, the Ratio Test/Control in experiment [5] amounted to 2. In experiment [6], this molecule showed an optical density of 0.182 OD.

The record behind these values is patent US20090304577A1.
